For 134 substances, Binding affinity results are on record in patent US20250011363A1, “OPTIMIZED SHORTENED PEPTIDE THAT BINDS TO ACETYLCHOLINE RECEPTOR, AND USE THEREOF” (SKINMED CO., LTD., priority 2021, published 2025).

In the experiment the target is acetylcholine receptor (Homo sapiens, UniProt P02708). Description: SPR binding affinity (RU) of optimized 5mer/6mer/7mer peptides, Examples 6-7. Conditions: SPR, Resonance Units; peptides tested at 10 μM; 6mer-2 Bottom sequence. The procedure, abridged: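 Using surface plasmon resonance, binding to the acetylcholine receptor was measured for each sequence at a single 10 μM concentration. Values are response units.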
A general note: Surface plasmon resonance follows binding to a sensor surface in real time, without labels.

Sequence of acetylcholine receptor (P02708 21-457): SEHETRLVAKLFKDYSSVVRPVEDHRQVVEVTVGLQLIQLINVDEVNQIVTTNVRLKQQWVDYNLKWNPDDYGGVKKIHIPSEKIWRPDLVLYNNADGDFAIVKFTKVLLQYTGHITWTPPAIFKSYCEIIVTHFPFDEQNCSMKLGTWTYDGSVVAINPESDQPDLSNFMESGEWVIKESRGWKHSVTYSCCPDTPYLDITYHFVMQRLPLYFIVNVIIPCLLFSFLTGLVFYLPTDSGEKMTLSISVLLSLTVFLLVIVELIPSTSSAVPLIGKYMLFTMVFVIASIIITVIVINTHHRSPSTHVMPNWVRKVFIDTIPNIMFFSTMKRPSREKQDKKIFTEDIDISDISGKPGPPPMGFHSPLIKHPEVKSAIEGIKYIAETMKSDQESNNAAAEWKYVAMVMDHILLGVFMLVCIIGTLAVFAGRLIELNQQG

Regarding 6mer-2-639 (KHTVKK), the Binding affinity came to 23 Ru.
As for 6mer-2-640 (KFKKKR), the Binding affinity was found to be 21 Ru.
Regarding 6mer-2-641 (REEFRR), the Binding affinity was determined as 12 Ru.
In the case of 6mer-2-642 (KTENKK), the Binding affinity is given as 16 Ru.
With 6mer-2-643 (KANPKK), the Binding affinity is recorded as 12 Ru.
On to 6mer-2-644 (REPNRR), for which the Binding affinity is 12 Ru.
With 6mer-2-645 (RIKVKK), the Binding affinity turned out to be 15 Ru.
On to 6mer-2-646 (RAAPRR), for which the Binding affinity turned out to be 32 Ru.
On to 6mer-2-647 (KTEPKR), for which the Binding affinity is reported as 19 Ru.
As for 6mer-2-648 (RYPDRK), the Binding affinity is 23 Ru.
With 6mer-2-649 (KFDVRK), the Binding affinity came out at 31 Ru.
Regarding 6mer-2-650 (RFKARK), the Binding affinity is on record as 18 Ru.
As for 6mer-2-651 (KNADRR), the Binding affinity was 21 Ru.
Turning to 6mer-2-652 (RTTMRK), the Binding affinity was 16 Ru.
For 6mer-2-653 (KIEMKR), the Binding affinity was found to be 20 Ru.
For the substance 6mer-2-654 (RMPEKR), the Binding affinity was found to be 20 Ru.
For the substance 6mer-2-655 (KIWFRR), the Binding affinity amounted to 31 Ru.
With 6mer-2-656 (KADPRR), the Binding affinity worked out at 11 Ru.
Under 6mer-2-657 (RKHERK) stands 32 Ru; under 6mer-2-658 (RYWVKK), 23 Ru; under 6mer-2-659 (KIPNKR), 22 Ru.
As to 6mer-2-660 (RHKDRK), the Binding affinity is given as 16 Ru.
On to 6mer-2-661 (RMKAKK), for which the Binding affinity worked out at 29 Ru.
Take 6mer-2-662 (KAHPKK): the Binding affinity was determined as 11 Ru.
For the substance 6mer-2-663 (KFAGRR), the Binding affinity was found to be 24 Ru.
In the case of 6mer-2-664 (KCCWKK) it was 11 Ru; in that of 6mer-2-665 (KCAERR), 18 Ru.
As for 6mer-2-666 (KPMDRR), the Binding affinity was found to be 25 Ru.
Under 6mer-2-667 (KHDMRR) stands 25 Ru; under 6mer-2-668 (RFCNKK), 13 Ru; under 6mer-2-669 (KNMWRK), 15 Ru.
In the case of 6mer-2-670 (RKWHKR), the Binding affinity is 33 Ru.
In the case of 6mer-2-671 (RDWIRR) it was 27 Ru; in that of 6mer-2-672 (KIDDRK), 20 Ru; in that of 6mer-2-673 (RFCGRK), 23 Ru.
As for 6mer-2-674 (KKWERK), the Binding affinity came to 26 Ru.
Under 6mer-2-675 (RMKWRK) stands 14 Ru.
For the substance 6mer-2-676 (KCTAKK), the Binding affinity was determined as 14 Ru.
As for 6mer-2-677 (RENWKK), the Binding affinity came out at 28 Ru.
Under 6mer-2-678 (KEWWRR) stands 32 Ru; under 6mer-2-679 (RYSAKK), 20 Ru; under 6mer-2-680 (KNHGKR), 15 Ru.
Take 6mer-2-681 (RDTWRR): the Binding affinity amounted to 33 Ru.
In the case of 6mer-2-682 (RNMERR), the Binding affinity is on record as 33 Ru.
As for 6mer-2-683 (KTEIRK), the Binding affinity worked out at 33 Ru.
Turning to 6mer-2-684 (RYTMKK), the Binding affinity is 14 Ru.
In the case of 6mer-2-685 (KFHNRK) it was 15 Ru; in that of 6mer-2-686 (KTWEKK), 21 Ru.
Consider 6mer-2-687 (KADGRK), for which the Binding affinity was 16 Ru.
Regarding 6mer-2-688 (RPMFRK), the Binding affinity was 13 Ru.
With 6mer-2-689 (RDKERR), the Binding affinity was found to be 24 Ru.
In the case of 6mer-2-690 (KFTMRK), the Binding affinity was 13 Ru.
In the case of 6mer-2-691 (RHKMRK), the Binding affinity is listed as 15 Ru.
For the substance 6mer-2-692 (KYTNRR), the Binding affinity was found to be 29 Ru.
6mer-2-693 (KNTIRR): the Binding affinity is 16 Ru.
In the case of 6mer-2-694 (KDSIRK) it was 22 Ru; in that of 6mer-2-695 (KCWWRR), 28 Ru; in that of 6mer-2-696 (KFTKKK), 20 Ru.
In the case of 6mer-2-697 (KCAVKK) it was 19 Ru.
On to 6mer-2-698 (KCEDKK), for which the Binding affinity came out at 27 Ru.
In the case of 6mer-2-699 (KNAGKR) it was 23 Ru; in that of 6mer-2-700 (RPWHKK), 15 Ru; in that of 6mer-2-701 (KTWAKR), 23 Ru.
With 6mer-2-702 (KEMIKR), the Binding affinity is reported as 18 Ru.
Regarding 6mer-2-703 (RTMHKR), the Binding affinity was 14 Ru.
On to 6mer-2-704 (KDWHRK), for which the Binding affinity was 20 Ru.
With 6mer-2-705 (RENFKK), the Binding affinity came out at 11 Ru.
6mer-2-706 (KFTDRK): the Binding affinity is reported as 23 Ru.
Take 6mer-2-707 (RTWKRK): the Binding affinity is given as 21 Ru.
Regarding 6mer-2-708 (RAWVKK), the Binding affinity was 29 Ru.
In the case of 6mer-2-709 (RIWPKR) it was 31 Ru; in that of 6mer-2-710 (RNKKKK), 14 Ru.
As to 6mer-2-711 (KECGRR), the Binding affinity is 29 Ru.
For 6mer-2-712 (KIPHRR), the Binding affinity turned out to be 29 Ru.
As to 6mer-2-713 (RASWRR), the Binding affinity was 24 Ru.
In the case of 6mer-2-714 (KIDVRK) it was 30 Ru; in that of 6mer-2-715 (RATHRK), 32 Ru; in that of 6mer-2-716 (RTWKKR), 18 Ru.
Take 6mer-2-717 (KCPGKR): the Binding affinity was 15 Ru.
Under 6mer-2-718 (KYTFKR) stands 12 Ru.
Turning to 6mer-2-719 (KIKPRR), the Binding affinity stood at 29 Ru.
Consider 6mer-2-720 (RATNRK), for which the Binding affinity amounted to 29 Ru.
6mer-2-721 (RHSKKK): the Binding affinity amounted to 26 Ru.
Regarding 6mer-2-722 (RNEHRR), the Binding affinity came to 21 Ru.
Consider 6mer-2-723 (KEDMKR), for which the Binding affinity was determined as 23 Ru.
Consider 6mer-2-724 (KYTMKK), for which the Binding affinity was 24 Ru.
Turning to 6mer-2-725 (KAHMKK), the Binding affinity stood at 25 Ru.
Turning to 6mer-2-726 (KHHKKK), the Binding affinity was 25 Ru.
For the substance 6mer-2-727 (RDMIKR), the Binding affinity amounted to 11 Ru.
Under 6mer-2-728 (RMTMKK) stands 23 Ru; under 6mer-2-729 (RCPDKR), 30 Ru.
Take 6mer-2-730 (RNTHKR): the Binding affinity stood at 26 Ru.
Regarding 6mer-2-731 (KASWKK), the Binding affinity came out at 19 Ru.
Take 6mer-2-732 (KPTWRK): the Binding affinity came to 24 Ru.
Consider 6mer-2-733 (RTPARK), for which the Binding affinity was determined as 29 Ru.
For the substance 6mer-2-734 (KHCHRR), the Binding affinity was determined as 17 Ru.
Under 6mer-2-735 (KMNAKK) stands 21 Ru; under 6mer-2-736 (KNNHKK), 29 Ru.
On to 6mer-2-737 (KDSVRR), for which the Binding affinity is given as 19 Ru.
With 6mer-2-738 (KPWFKK), the Binding affinity is recorded as 29 Ru.
With 6mer-2-739 (RIHAKK), the Binding affinity turned out to be 17 Ru.
In the case of 6mer-2-740 (KIDIRR) it was 12 Ru; in that of 6mer-2-741 (KNEKKR), 30 Ru.
Consider 6mer-2-742 (KNNWRR), for which the Binding affinity was found to be 32 Ru.
In the case of 6mer-2-743 (KHTMKR) it was 18 Ru; in that of 6mer-2-744 (KDHPRK), 19 Ru; in that of 6mer-2-745 (KNTERR), 17 Ru.
With 6mer-2-746 (RIKVRK), the Binding affinity came to 26 Ru.
On to 6mer-2-747 (RANFRR), for which the Binding affinity is listed as 29 Ru.
For the substance 6mer-2-748 (RFDKKR), the Binding affinity was 28 Ru.
On to 6mer-2-749 (KMWKRK), for which the Binding affinity came out at 20 Ru.
With 6mer-2-750 (RKCVKR), the Binding affinity was found to be 29 Ru.
6mer-2-751 (RPHWKR): the Binding affinity worked out at 12 Ru.
For the substance 6mer-2-752 (KINWRR), the Binding affinity amounted to 29 Ru.
As to 6mer-2-753 (RYEHRR), the Binding affinity turned out to be 18 Ru.
In the case of 6mer-2-754 (KADGRR) it was 12 Ru; in that of 6mer-2-755 (RYNDKK), 18 Ru.
Under 6mer-2-756 (KPTNRK) stands 26 Ru; under 6mer-2-757 (RIPNKR), 19 Ru.
Regarding 6mer-2-758 (RFSFKK), the Binding affinity worked out at 18 Ru.
For the substance 6mer-2-759 (RFDEKK), the Binding affinity worked out at 18 Ru.
Consider 6mer-2-760 (KIPVKK), for which the Binding affinity amounted to 15 Ru.
In the case of 6mer-2-761 (RTEPRK) it was 29 Ru.
On to 6mer-2-762 (KFEERK), for which the Binding affinity is 24 Ru.
Under 6mer-2-763 (KMKERR) stands 19 Ru; under 6mer-2-764 (RNAVKK), 31 Ru.
Turning to 6mer-2-765 (KHSPRK), the Binding affinity is listed as 23 Ru.
In the case of 6mer-2-766 (RPTFRK) it was 23 Ru; in that of 6mer-2-767 (RICGRK), 13 Ru; in that of 6mer-2-768 (KYMGRK), 22 Ru.
Take 6mer-2-769 (RCPFRK): the Binding affinity worked out at 13 Ru.
For 6mer-2-770 (KPNMKK), the Binding affinity was 24 Ru.
Take 6mer-2-771 (KITARR): the Binding affinity is given as 26 Ru.
Regarding 6mer-2-772 (RHPAKK), the Binding affinity stood at 15 Ru.
